Source: publication PMC6085368, “Structure of the essential peptidoglycan amidotransferase MurT/GatD complex from Streptococcus pneumoniae” (Nature Communications, 2018)
Positions count from the first letter of the chain named.

How the values were obtained:
MurT/GatD [1] = target: T1, MurT/GatD (Streptococcus pneumoniae, UniProt Q8DNZ8+Q8DNZ9); assay: X-ray crystal structure, […] Å; assay type: binding; conditions: tentative assignment to residual density near GatD Cys107; no glutamine added, presumably carried over from E. coli
T1 construct: co-expressed in E. coli BL21 Star (DE3) from modified pET-30; MurT with N-terminal poly-His tag (cleavage not mentioned), GatD untagged; MurT/GatD heterodimer (four complexes in the asymmetric unit); MurT residues 1-42 present but not visible
T1 sequence (Q8DNZ9 1-447): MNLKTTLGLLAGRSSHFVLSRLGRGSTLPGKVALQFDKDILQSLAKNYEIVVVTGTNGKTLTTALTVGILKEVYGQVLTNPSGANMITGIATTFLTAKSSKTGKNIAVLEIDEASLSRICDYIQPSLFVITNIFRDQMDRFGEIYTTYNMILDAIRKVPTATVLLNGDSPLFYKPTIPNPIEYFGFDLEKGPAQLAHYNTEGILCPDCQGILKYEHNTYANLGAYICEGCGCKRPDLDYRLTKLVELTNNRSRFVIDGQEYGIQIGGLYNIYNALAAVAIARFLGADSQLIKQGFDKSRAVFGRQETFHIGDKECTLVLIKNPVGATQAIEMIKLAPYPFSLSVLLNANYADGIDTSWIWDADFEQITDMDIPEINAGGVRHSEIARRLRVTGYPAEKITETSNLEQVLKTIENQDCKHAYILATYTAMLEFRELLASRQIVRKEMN
T1 sequence (Q8DNZ8 1-260): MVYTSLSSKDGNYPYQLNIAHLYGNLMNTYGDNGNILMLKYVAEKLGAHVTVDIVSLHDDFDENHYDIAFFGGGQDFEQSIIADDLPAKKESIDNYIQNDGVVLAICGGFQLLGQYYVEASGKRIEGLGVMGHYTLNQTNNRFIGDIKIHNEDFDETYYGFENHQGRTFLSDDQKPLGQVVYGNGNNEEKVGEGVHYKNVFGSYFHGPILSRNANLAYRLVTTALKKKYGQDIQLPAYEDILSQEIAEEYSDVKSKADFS

[2] = target: MurT variants with substituted conserved residues ("in most cases"); assay: co-purification (metal-affinity chromatography of His-tagged MurT, SEC; SDS-PAGE with Coomassie stain, ratio of bands); His-tagged MurT (wild type or variant) co-expressed with untagged GatD in E. coli; lysate loaded on HisTrap FF in 50 mM HEPES pH 7.5, 300 mM NaCl, 10 mM MgCl2, 25 mM imidazole, 2 mM TCEP; then SEC
MurT/GatD [3] = target: T1, MurT/GatD; assay: coupled ATPase assay (pyruvate kinase / lactate dehydrogenase, NADH at […] nm), initial velocities; assay type: biochemical; conditions: 2 mM ATP, 10 mM L-Gln, 10 mM MgCl2, 150 mM NaCl, 50 mM HEPES, 2 mM TCEP, 1% DDM, pH 7.5, 30 °C; MurT active site; read-out: Initial velocities method / Apparent KM
purified protein [4] = substrate: Nc1ncnc2c1ncn2[C@@H]1O[C@H](COP(=O)(O)OP(=O)(O)OP(=O)(O)O)[C@@H](O)[C@H]1O; assay: purified protein; assay type: biochemical, Streptococcus pneumoniae; conditions: 10 mM L-Gln, 10 μM lipid II (below its apparent KM), 10 mM MgCl2, 150 mM NaCl, 50 mM HEPES, 2 mM TCEP, 1% DDM, pH 7.5, 30 °C, MurT active site
purified protein [5] = substrate: NC(=O)CC[C@H](N)C(=O)O; assay: purified protein; assay type: biochemical, Streptococcus pneumoniae; conditions: 2 mM ATP, 10 μM lipid II (below its apparent KM), 10 mM MgCl2, 150 mM NaCl, 50 mM HEPES, 2 mM TCEP, 1% DDM, pH 7.5, 30 °C, GatD glutaminase site
[6] = target: T2, MurT 4C4S variant (the four cysteines of the cysteine tetrad replaced by serines), with N-terminal … (Streptococcus pneumoniae, UniProt Q8DNZ9 1-447, 4C4S (Cys205 to Ser) | 4C4S (Cys208 to Ser) | 4C4S (Cys227 to Ser) | 4C4S …); assay: co-purification (metal-affinity chromatography of His-tagged MurT, SEC; SDS-PAGE with Coomassie stain, ratio of bands); His-tagged MurT (wild type or variant) co-expressed with untagged GatD in E. coli; lysate loaded on HisTrap FF in 50 mM HEPES pH 7.5, 300 mM NaCl, 10 mM MgCl2, 25 mM imidazole, 2 mM TCEP; then SEC; conditions: partners not purified
T2 construct: MurT, Streptococcus pneumoniae, with cysteines 205, 208, 227 and 230 replaced by serines; PDB 6FQB holds the wild-type parent; also called MT4C4S; 4C4S MurT/GatD; source: E. coli BL21 Star (DE3), co-expressed with GatD; purified (HisTrap, SEC); not shown: poly-histidine, N-terminal, kept
T2 sequence: T1 sequence (Q8DNZ9 1-447) with C205S, C208S, C227S, C230S

[7] = target: T3, MurT from Streptococcus pneumoniae, wild type, with N-terminal poly-histidine tag (Streptococcus pneumoniae, UniProt Q8DNZ9 1-447); assay: as above; conditions: partners not purified
T3 construct: MurT, subunit of the lipid II amidotransferase MurT/GatD, Streptococcus pneumoniae; N-terminal region 1-42 present by mass spectrometry though not visible in the crystal; central domain 43-302, C-terminal domain 303-439; also called MT; source: E. coli BL21 Star (DE3), co-expressed with GatD from a modified pET-30 plasmid; purified (HisTrap, Q Sepharose, SEC; anion exchange omitted for activity …)
T3 sequence: T1 sequence (Q8DNZ9 1-447)

NC(=O)CC[C@H](N)C(=O)O [L-Gln]
X-ray crystal structure, 3.0 Å (MurT/GatD [1]): glutamine was thus tentatively placed in the residual density observed in GatD active site

GatD from Streptococcus pneumoniae, wild type, without tag (from UniProt Q8DNZ8 1-260) (enzyme)
ratio of MurT/GatD bands [2]: 1.78

lipid II
Km (MurT/GatD [3]): 220 ± 60 µM

B1: MurT/GatD (Streptococcus pneumoniae R6) (protein)
chain 1: T1 sequence (Q8DNZ9 1-447)
chain 2: T1 sequence (Q8DNZ8 1-260)
notes: co-expressed in E. coli BL21 Star (DE3) from modified pET-30; MurT with N-terminal poly-His tag (cleavage not mentioned), GatD untagged; MurT/GatD heterodimer (four complexes in the asymmetric unit); MurT residues 1-42 present but not visible
Km (purified protein [4]): 16 ± 2 µM
Km (purified protein [5]): 78 ± 8 µM

B2: GatD from Streptococcus pneumoniae, wild type, without tag (enzyme)
chain: T1 sequence (Q8DNZ8 1-260)
notes: GatD, class I glutaminase subunit of the MurT/GatD amidotransferase, Streptococcus pneumoniae; also called GD; GatDSpn; source: E. coli BL21 Star (DE3), co-expressed with His-tagged MurT from a modified pET-30 plasmid; co-purified with MurT (HisTrap, Q Sepharose, SEC)
ratio of the Coomassie-stained MurT/GatD bands after SDS-PAGE [6]: 1.4
ratio of the Coomassie-stained MurT/GatD bands after SDS-PAGE [7]: 1.78
